Results from PMC3854531.

Target: sDMA-containing peptide (Bio-…[sDMA]G[sDMA]G[sDMA]G[sDMA]KPN)
Experiment: SPR

With “His-tagged N-terminal deleted BmPAPI (ΔN-BmPAPI: amino acids 48–629) (domain or fragment)” the Kd was 27 µM.
